Results reported in the DeepSol protein solubility set.

Experiment: soluble on expression in E. coli; label from the status in PepcDB or PDB records

Sequence	soluble on expression in E. coli
MQSVLNLGKTTVTTCTFLRAASTSLQGKGPLKTNWKENVVYLYQFPRPANRQPNLSPYCLKIETFLRANRIKHEVVGTWLTLRQSPRGLLPFIELNGQQISDSQVIVWKLQKHFDLDDKLEGSDRGTARAVERMIDLSTNYALLVDKTVNNAHLLLARQVSNLPLPSFLTNYLAKGFSQTARKRVNGVLGKLDVAEQKELLRRDIRAIDDILGDKKFLFGDRITSVDCSVFGQIGAVFYLPYRQQISDLLEDDFPRVRAYCDRIRQHYYPEWRDD	not soluble
DSKDTRQFVKSIAKDAHRIGQDNDIYASVMIAQAILESDSGRSALAKSPNHNLFGIKGAFEGNSVPFNTLEADGNKLYSINAGFRKYPSTKESLKDYSDLIKNGIDGNRTIYKPTWKSEADSYKDATSHLSKTYATDPNYAKKLNSIIKHYQL	not soluble
MTHVTPFSNPFLLGFETIEKTLRRIGKADETYPAYNIERLHKNDDASHIRITLAVAGFKVNNLNILLDDNQLIIHGKQTDSQNHQYLYRGIAARQFQRTFVLVEGMHVTNAELKNGLLSINLYQPKTKKQMKQIPIKVSNKS	not soluble
MGKALIIGCGGVASVAVHKCVQNSEVFEEICIASRTKSKCDALKAKLDGGKTKITTAQVDANNVDELIALIEEVKPDVVMNLALPYQDLTIMDACLATKTNYLDTANYEPEDTAKFEYKWQWDYRERFEKAGITALLGSGFDPGVTGVFSAYALKHHFDEIEYIDILDCNAGDHGYPFATNFNPEINIREVSANGRYWENGEWVETNPMEIKRVYNFPEVGEKDMYLLYHEELESLAVNIPGIKRIRFFMTFSESYLTHLKCLENVGMTSIEPIEFEGKEIIPLQFLKAVLPDPASLGPRTKGKTNIGCIFKGKKDGKDKTYYLYNVCDHEECYKEVGSQAVSYTTGVPAMIGAMMLMTGKWNKPGVYNIEEFDPDPFMEALNKWGLPWKEDHNPQLVDSDPIKETELVR	not soluble
MSLKKATLKDIAEYFGVSISTVSRALSGKPGVSSELREKILEKAREIGYTPNLMALGLKKGNTRTVGVLIPELSANFFADIVSSIEKSLFHLGYRLILCSTDDDPVKEREHLQLLLDQKVEGILSAPVNVKENKDIYNSIINHFKIPVVFFDRLVEGVDSDFVISDNREGMEILVNYLVKHGHKKIGLIHPLRGSFTGEERLKGFLLFKDSIEIREEWIRDGRSSEQGGYESFLRIMTSQERPTAIVIGNNLMTLGVLKAAKELNIKIPEDISLVSFDDAYWNEIFDPPITCVRQDPQQIGLIAATILLDRMKNRKKPSPRMQVVLKVKFVERSSVRTIKTLKDEGHHHHHH	soluble
MGSDKIHHHHHHMSGHKCYPWDLQDRYAQDKSVVNKMQQKYWETKQAFIKATGKKEDEHVVASDADLDAKLELFHSIQRTCLDLSKAIVLYQKRICFLSQEENELGKFLRSQGFQDKTRAGKMMQATGKALCFSSQQRLALRNPLCRFHQEVETFRHRAISDTWLTVNRMEQCRTEYRGALLWMKDVSQELDPDLYKQMEKFRKVQTQVRLAKKNFDKLKMDVCQKVDLLGASRCNLLSHMLATYQTTLLHFWEKTSHTMAAIHESFKGYQPYEFTTLKSLQDPMKKLVEKEEKKKINQQESTDAAVQEPSQLISLEEENQRKESSSFKTEDGKSILSALDKGSTHTACSGPIDELLDMKSEEGACLGPVAGTPEPEGADKDDLLLLSEIFNASSLEEGEFSKEWAAVFGDGQVKEPVPTMALGEPDPKAQTGSGFLPSQLLDQNMKDLQASLQEPAKAASDLTAWFSLFADLDPLSNPDAVGKTDKEHELLNA	not soluble
MVKDCSYSILLPTYNERENLPYILYFIEEVFESMGERYEVIVVDDNSPDGTLEVAKKLQQVFGSDKVVLAPRAGKLGLGSAYSHGLQFAKGNFIIIMDADLSHHPKYIADFVRKQREGSFDVVTGTRYRGEGGVFGWNWRRKLTSVGANLLAQLLLNPGVSDLTGSFRLYRRQAFEQLIHRTRSKGYVFQMEIIVLAKKLGLRVGEVPIVFIDRLYGESKLGGREVIQYLSGLLCLMFQK	soluble
MAKIAAIFQLLDKNVTVSSHRLELLSPARDAAIAREAILHGADAVYIGGPGFGARHNASNSLKDIAELVPFAHRYGAKIFVTLNTILHDDELEPAQRLITDLYQTGVDALIVQDMGILELDIPPIELHASTQCDIRTVEKAKFLSDVGFTQIVLARELNLDQIRAIHQATDATIEFFIHGALCVAYSGQCYISHAQTGRSANRGDCSQACRLPYTLKDDQGRVVSYEKHLLSMKDNDQTANLGALIDAGVRSFKIEGRYKDMSYVKNITAHYRQMLDAIIEERGDLARASSGRTEHFFVPSTEKTFHRGSTDYFVNARKGDIGAFDSPKFIGLPVGEVVKVAKDHLDVAVTEPLANGDGLNVLIKREVVGFRANTVEKTGENQYRVWPNEMPADLHKIRPHHPLNRNLDHNWQQALTKTSSERRVAVDIELGGWQEQLILTLTSEEGVSITHTLDGQFDEANNAEKAMNNLKDGLAKLGQTLYYARDVQINLPGALFVPNSLLNQFRREAADMLDAARLASYQRGSRKPVADPAPVYPQTHLSFLANVYNQKAREFYHRYGVQLIDAAYEAHEEKGEVPVMITKHCLRFAFNLCPKQAKGNIKSWKATPMQLVNGDEVLTLKFDCRPCEMHVIGKIKNHILKMPLPGSVVASVSPDELLKTLPKRKG	not soluble
MGSSHHHHHHSSGLVPRGSMGFKVKLEKRRNAINTCLCIGLDPDEKDIENFMKNEKENNYNNIKKNLKEKYINNVSIKKDILLKAPDNIIREEKSEEFFYFFNHFCFYIINETNKYALTFKMNFAFYIPYGSVGIDVLKNVFDYLYELNIPTILDMKINDIGNTVKNYRKFIFEYLKSDSCTVNIYMGTNMLKDICYDEEKNKYYSAFVLVKTTNPDSAIFQKNLSLDNKQAYVIMAQEALNMSSYLNLEQNNEFIGFVVGANSYDEMNYIRTYFPNCYILSPGIGAQNGDLHKTLTNGYHKSYEKILINIGRAITKNPYPQKAAQMYYDQINAILKQNMES	soluble
MGSDKIHHHHHHMTTDGQLAYQQTCDYPIEERQSEQQVIRQYLPLIKRIVSQMRSHCGVMLSLEDMEQIGMMALLESSRRYPGELDNGFISFAGQRIRGAILDELRRQDWRPRPVRQQAHELNDVVRRLSREMGREPSDLEVASALGLSAEDYRERLYSTQAESMKSLDELLLVGEHPVDRGNDVEQLMLKQTLIKVISKLNEREQLILSLYYHHELNLKEIAMALGLTETRICQLHKSAISQLKTILQR	not soluble
MGSDKIHHHHHHARTILREELAQNSINKYSVKQYCQASGVGRASFYSTYNGMPDLFCNTLQFEIRKHFQNYSDCNSRKLVYALLKEIGDHRIYYTNIYRLTNKNTSKIHICHQINHAFFTEMQKHLQNSNCSNKQIQSMTNIIFSRVVSWVAHNCKEKVLDVYVDLEYVLPSN	not soluble
MTEPFIVRRETQIAAPRATVFAYLTDPEKILSWMGSDATTEPHPGGLYLLKGIGPRGAAARGAFREVVPVHRLAYTFGWEGGQEVPPGSSLIEIDLIERDGGTLLRMTHSGLPTEEQAAAHAKGWAHYLERLTTAAAGNDPGPDNGVSTKSLEHHHHHH	soluble
MSRAVSRLIEACGRLSITQRSQMHFFRPPPTSSILPPLVTPSTTIVEKSIELPSLENPQQIYTFPTLHRSPIVAPGAILTEILEKLAPTAEKGFLIAPGTPNKSPMWLSPRLLTIRRKKMKKHKRRRRYDRDFFKYQKYHREKKLKSEREFQKRMKSLLTELEAFNPEKYVKDTIRMANKEWQDELAPTGRKLYPHWSRFMSLEQLYGLPKSEYIDKRAGLPTPEEAEQIKALKEKYAKLYRKK	soluble
MGSDKIHHHHHHMIVALFALLASGCGHSQRTLEFRGICVDDPQGENGLYNPGRGFRLETAVDVLHEKDTPTEELNELSAKYVADSVSLSQSYFYLTYLIGKELSEENFRTMQAYFDELQKQGKKAVLRFAYERDFMGRSPVGPTGEQILAHLDQLKPFLEKNKDLILVVQAGMIGAWGEWHSSVQGLENSEETKAAVLEKLLSVVPAERNVQVRLPEFKNLLKDKPELYKRLSFHDDFIVIRPDRWDADMHEGTPKFDQIVAESPYLVVDGELPWGFWSVGADPDSPSAGWIIDGMQAARRLFLQHYTSLSIIHNYKEQHPNNRFDENNPPEYSMVVWKKTMITEDSLLQHHMPVSDSYFRKKDGTKVKRNMFDYIRDHLGYRIELQSLQLPSKFVSGKENVLKLSLKNRGFATVFGEHPVYFVLIDDAGEVTEFPTDANPKNWQPFEPKDSAYTSLMHTVDVSLELPASVTAGTYKLGLWIPDGSDRLRYNPRYAIHCANGDTDWWISKDGKYGVNVLTAVEVE	not soluble
MSHPRYKSLLNRDRIVEAFESGVLAKGGMIAHGRGETFDYLIGESTTDAALNSIKVSAALLVLAENPVISVNGNSVALAKDEFVELAKELNGKIEVNLFYRTTEREEKIKDVFESDINGGIVLLGIDNADKQIPGIDHLRGKVSESGIYTSDVVLVPLEDGDRAEALVKMGKTVIAIDLNPLSRTARKSTISIIDELTRCIPLITEYVREYKKMDRAELLKIVENYDNEENLRNILNLISKRLTSVDLEHHHHHH	not soluble
MYNNEPGAQSDPTLGYTFQNDFLALSQAFSLPEIDYTDISQREQLAAAIKRWPLLAEFAQPHSLRKP	not soluble
MGSDKIHHHHHHMSTELNTMALSVPQGAGLDGYIQSVNRIPMLTAEKEKALATRLYENSDLDAAKELIMSHLRFVVHVARSYSGYGLPQADLIQEGNIGLMKAVKRFDPSVGVRLVSFAVHWIKAEIHEYVLRNWRVVKVATTKAQRKLFFNLRKMKKRLGWFSQKEVETVANELGVSTKEVLEMETRMSAHDQAFELSSDDDDSKEGSAYSPAMYLEDKRSDLAAEIEAKDYENHTQQKLLGAMSHLDERSQDIVQSRWLSEDKTTLHDLAEKYEVSAERVRQLEQNAMKKLRLAMS	not soluble
MSDDEIGDGARAFNQLIQALSLSIETETAVRTFTEMLVSELDVHQLTEQALALLLQHTGADGGAILIEVDGEIRVAASQGIGSAHTLANNDRVRSALRTERRHRVQLPEDLVVDGMLAQFRPKEVIIDPVRHKEVVLGAVVLASGQGFSAEDRNRLDVFERGLALALHNALLYDRLQTLAALDPLTGALEHHHHHH	soluble
MGSDKIHHHHHHMKIAIEAQRIFRKEKHGMDYVALETIRELQKIDQQNEYFILVSPGDDVCLQESANMHIVTVNWPSYPLWEQIGLPLALKKIKPDLLHCTSNTAPVHGNIPLVLTLHDIIFLEKKQGKNQSMYQRLGRFYRKIIVPQILTKCKRIITVSHFECNRISHFLHIDKQLLVAVYNGYSQHFIPIRNAQAITARYIKNHPYLFFLGNTDPKKNTARVLQAYGIYLKKSSQPLPLLIADLKEEIIDEYLNREGLQEIKKMLYHPGYIPNTELPAVYSGASVFIYTSLRESFGIPILEAMACGTPVITSTTSAMPEIAGPEGILVNPFEPEEIASALLHLEENAEFYQSQTAYGLERVRRFSWENTAREILNIYKEILA	not soluble
MRGSHHHHHHGSAERMLATIMFTDIVGSTQHAAALGDDRWRDLLDNHDTIVCHEIQRFGGREVNTAGDGFVATFTSPSAAIACADDIVDAVAALGIEVRIGIHAGEVEVRDASHGTDVAGVAVHIGARVCALAGPSEVLVSSTVRDIVAGSRHRFAERGEQELKGVPGRWRLCVLMRDDATRTR	soluble
CYVDTNNDGAYEGDELSGTMEYKLILNGKTLKGETTTCAVDAATAEKVFKQYANDNGVDGEWTYDDATKTFTVTE	soluble
